According to article PMC6486636, “LARP4A recognizes polyA RNA via a novel binding mechanism mediated by disordered regions and involving the PAM2w motif, revealing interplay between PABP, LARP4A and mRNA”:

How the values were obtained:
LARP4A 1-79 = LARP4A 1-79 (Homo sapiens, UniProt Q71RC2 1-79); assay: EMSA; up to 200 uM protein; EMSA: 20 mM Tris pH 7.25, 200 mM KCl, 5% glycerol, 1 mM DTT, 0.1 mg/ml BSA, 0.01 mg/ml E. coli tRNA, on ice, gel at 4 C; MST: 20 mM Tris pH 7.25, 100 mM KCl, 0.2 mM EDTA, 1 mM DTT, 0.05% Tween-20, 25 C; conditions: protein: recombinant; tags: His-SUMO, cleaved; label: 5' 32P (EMSA); unlabelled (NMR, native MS); single strand
LARP4A 1-50 = target: T1, LARP4A 1-50 (Homo sapiens, UniProt Q71RC2 1-50); assay: as above; conditions: protein: recombinant; tags: His-SUMO, cleaved; label: 5' 32P (EMSA); unlabelled (NMR, native MS); single strand
T1 chain: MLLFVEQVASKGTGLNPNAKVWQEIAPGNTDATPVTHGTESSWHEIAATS

LARP4A La module = LARP4A La module (Homo sapiens, UniProt Q71RC2 111-287); assay: NMR; small shifts, almost exclusively RRM1; 100 mM KCl; EMSA: 20 mM Tris pH 7.25, 200 mM KCl, 5% glycerol, 1 mM DTT, 0.1 mg/ml BSA, 0.01 mg/ml E. coli tRNA, on ice, gel at 4 C; MST: 20 mM Tris pH 7.25, 100 mM KCl, 0.2 mM EDTA, 1 mM DTT, 0.05% Tween-20, 25 C; conditions: protein: recombinant; tags: His tag, TEV-cleaved; label: 5' 32P (EMSA); unlabelled (NMR, native MS); single strand
Chain of LARP4A La module (Q71RC2 111-287): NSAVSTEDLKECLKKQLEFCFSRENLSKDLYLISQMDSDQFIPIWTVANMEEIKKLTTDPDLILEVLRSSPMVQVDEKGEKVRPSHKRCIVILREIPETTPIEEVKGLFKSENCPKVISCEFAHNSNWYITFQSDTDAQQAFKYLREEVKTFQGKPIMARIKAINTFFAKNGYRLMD

LARP4A NTR [1] = target: T2, LARP4A NTR (Homo sapiens, UniProt Q71RC2 1-111); assay: EMSA; with competitor tRNA; retains majority of affinity; Kd only in figure; EMSA: 20 mM Tris pH 7.25, 200 mM KCl, 5% glycerol, 1 mM DTT, 0.1 mg/ml BSA, 0.01 mg/ml E. coli tRNA, on ice, gel at 4 C; MST: 20 mM Tris pH 7.25, 100 mM KCl, 0.2 mM EDTA, 1 mM DTT, 0.05% Tween-20, 25 C; conditions: protein: recombinant; tags: His (TEV) or His-SUMO, cleaved; label: 5' 32P (EMSA); unlabelled (NMR, native MS); single strand
LARP4A NTD [2] = target: T3, LARP4A NTD (Homo sapiens, UniProt Q71RC2 1-287); assay: EMSA; with competitor tRNA; low micromolar Kd, >100-fold tighter than La module; value only in figure; EMSA: 20 mM Tris pH 7.25, 200 mM KCl, 5% glycerol, 1 mM DTT, 0.1 mg/ml BSA, 0.01 mg/ml E. coli tRNA, on ice, gel at 4 C; MST: 20 mM Tris pH 7.25, 100 mM KCl, 0.2 mM EDTA, 1 mM DTT, 0.05% Tween-20, 25 C; conditions: protein: recombinant; tags: His tag (TEV) or His-SUMO, cleaved; label: 5' 32P (EMSA); unlabelled (NMR, native MS); single strand
LARP4A NTD [3] = target: T3, LARP4A NTD; assay: MST; 25 C; agrees with EMSA; Kd only in figure; EMSA: 20 mM Tris pH 7.25, 200 mM KCl, 5% glycerol, 1 mM DTT, 0.1 mg/ml BSA, 0.01 mg/ml E. coli tRNA, on ice, gel at 4 C; MST: 20 mM Tris pH 7.25, 100 mM KCl, 0.2 mM EDTA, 1 mM DTT, 0.05% Tween-20, 25 C; conditions: protein: recombinant; tags: His tag (TEV) or His-SUMO, cleaved; label: 5' fluorescein (FAM); single strand
LARP4A NTR [4] = target: T2, LARP4A NTR; assay: as above; conditions: protein: recombinant; tags: His (TEV) or His-SUMO, cleaved; label: 5' fluorescein (FAM); single strand

Binder: AAAAAAAAAAAAAAA (ssRNA) [oligoA15]
- binding result (LARP4A 1-79): no binding
- binding result (LARP4A 1-50): no binding
- binding result (LARP4A La module): binds
- binding result (LARP4A NTR [1]): binds
- binding result (LARP4A NTD [2]): binds

Binder: AAAAAAAAAAAAAAAAAAAA (ssRNA) [5'FAM-oligoA20]
- binding result (LARP4A NTD [3]): binds
- binding result (LARP4A NTR [4]): binds
